Among the data in publication PMC9192718 are stoichiometry N and stoichiometry N (Vps28 per Vps23 dimer) values, retold here.

Assay [1] addresses Heimdallarchaeota AB125 Vps22 (HeimAB125_14050) (Heimdallarchaeota AB125). Description: cross-linking; Vps22 15 µM in 20 mM HEPES-NaOH pH 7.5, 150 mM NaCl; 16 mM EDC with 16 mM Sulfo-NHS (1 h) or 2 mM BS3 (2 h) on ice; SDS-PAGE.
Assay [2] has the same target. Description: SEC-MALS; Heimdallarchaeotal Vps22 alone, loaded at 2.0 and 0.5 mg/ml; Superdex 200 increase 10/300; 20 mM Tris-HCl pH 8.0, 200 mM NaCl, 0.5 ml/min.
Assay [3] has as its target Odinarchaeota (Ca. Odinarchaeum yellowstonii LCB_4) Vps23 (TSG101) (Ca. Odinarchaeum yellowstonii LCB_4). In words: SEC-MALS; Odinarchaeota proteins; 100 µl at 2 mg/ml; Superdex 200 10/300 Increase GL; 20 mM Tris pH 8.0, 300 mM NaCl, 0.4 ml/min. In general terms: In gel filtration, larger molecules generally elute earlier.

For “Heimdallarchaeota AB125 Vps22 (HeimAB125_14050) (natural protein)”, the stoichiometry N in assay [1] and in assay [2] was 2 each time.
In assay [3], “Odinarchaeota (Ca. Odinarchaeum yellowstonii LCB_4) Vps28 (natural protein)” registered a stoichiometry N (Vps28 per Vps23 dimer) of 1.
In assay [3], “Odinarchaeota (Ca. Odinarchaeum yellowstonii LCB_4) Vps23 (TSG101) (natural protein)” came in with a stoichiometry N of 2.

As a reminder, the stoichiometry N is the number of molecules, sites or subunits per partner or assembly.
